The results in this text go back to patent EP2014310A2 (Dyax Corporation, dated 2009).

In general, Kd refers to the constant that tells how readily two partners part at equilibrium. Read a high Kd as a looser complex.

Bridge positions count the residues as written; N and C are the ends. Side chains are listed from the residue outwards. I, II: the chains in the order shown. * marks the point of attachment. Biotin = O=C1N[C@H]2[C@H](CS[C@H]2CCCCC(=O)*)N1; ivDde = CC(C)CC(=C1C(=O)CC(C)(C)CC1=O)*; AEEA = NCCOCCOCC(=O)O

In assay [1] the target is T1, human KDR-Fc fusion (R&D Systems #357-KD-050) (human, UniProt P35968 20-764).
T1 construct: bought
The assay is described as follows: fluorescence anisotropy, fluorescein-labeled peptide.

Assay [2] deals with KDR on human umbilical vein endothelial cells (HUVECs) (human, UniProt P35968 20-1356). The assay is described as follows: cell-based or functional assay.
The target of assay [3] is T1, human KDR-Fc fusion (R&D Systems …). The assay is described as follows: Biacore, KDR-Fc on CM5 chip, unlabeled peptide. (In general: Surface plasmon resonance follows binding to a sensor surface in real time, without labels.)
Assay [4] has as its target T2, KDR/VEGF complex (KDR-Fc mixed or saturated with VEGF) (human, UniProt P35968 20-764; P15692 27-191).
T2 construct: anisotropy: two fold molar excess of VEGF mixed with KDR-Fc; Biacore: KDR-Fc chip saturated with VEGF; also called KDR:VEGF165 complex
The assay is described as follows: fluorescence anisotropy, fluorescein-labeled peptide, KDR-Fc with two fold excess VEGF. (Polarisation of emitted light reports the rotation of a fluorescent probe.)

The target in assay [5] is T1, human KDR-Fc fusion (R&D Systems …). The assay is described as follows: fluorescence anisotropy, fluorescein-labeled peptide, KDR-Fc alone.
Assay [6] addresses VEGF165 (Peprotech #100-20) (UniProt P15692-4 27-191). The assay is described as follows: fluorescence anisotropy, fluorescein-labeled peptide.
Assay [7] concerns the target T1, human KDR-Fc fusion (R&D Systems …). The assay is described as follows: phage binding screen on KDR-Fc; class legend in paragraph 246.
Assay [8] deals with T2, KDR/VEGF complex (KDR-Fc mixed or …). The assay is described as follows: Biacore, KDR-Fc chip saturated with VEGF, unlabeled peptide.
For assay [9], the target named is T1, human KDR-Fc fusion (R&D Systems …). The assay is described as follows: phage binding screen on KDR-Fc; class legend in paragraph 246. This is another data set of the same source.
In assay [10] the target is KDR on transiently KDR-transfected 293H cells (human) (UniProt P35968). The assay is described as follows: neutravidin-HRP complexes, KDR minus mock 293H cells.
The target of assay [11] is T1, human KDR-Fc fusion (R&D Systems …). The assay is described as follows: fluorescence anisotropy, fluorescein-labeled peptide. The source holds these as a separate data set.
Assay [12] has the same target. The assay is described as follows: phage binding screen on KDR-Fc; class legend in paragraph 246. This is another data set of the same source.

T1 sequence (P35968 20-764): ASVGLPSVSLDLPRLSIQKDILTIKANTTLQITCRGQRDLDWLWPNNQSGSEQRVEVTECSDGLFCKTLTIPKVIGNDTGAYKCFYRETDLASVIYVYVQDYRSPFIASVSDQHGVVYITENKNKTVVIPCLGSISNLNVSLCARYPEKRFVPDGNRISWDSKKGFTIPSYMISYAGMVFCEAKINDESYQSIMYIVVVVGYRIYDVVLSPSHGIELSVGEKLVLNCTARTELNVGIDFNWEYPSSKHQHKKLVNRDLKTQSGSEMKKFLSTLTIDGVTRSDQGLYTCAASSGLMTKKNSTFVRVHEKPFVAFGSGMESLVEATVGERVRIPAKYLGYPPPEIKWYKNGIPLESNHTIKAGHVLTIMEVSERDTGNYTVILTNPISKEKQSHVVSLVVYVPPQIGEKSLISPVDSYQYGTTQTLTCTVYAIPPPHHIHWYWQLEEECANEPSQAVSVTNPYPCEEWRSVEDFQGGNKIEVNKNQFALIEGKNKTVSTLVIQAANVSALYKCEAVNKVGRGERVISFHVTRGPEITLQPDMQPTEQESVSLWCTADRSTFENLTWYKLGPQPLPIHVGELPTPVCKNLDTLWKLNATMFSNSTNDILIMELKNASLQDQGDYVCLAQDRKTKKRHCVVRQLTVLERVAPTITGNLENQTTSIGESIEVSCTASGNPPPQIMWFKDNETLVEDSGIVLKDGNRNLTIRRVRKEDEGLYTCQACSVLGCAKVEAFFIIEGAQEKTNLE
T2 sequence (P35968 20-764, chain 1 of 2): as the sequence (P35968 20-764) above
T2 sequence (P15692 other isoform, or with tags, fused parts or gaps, chain 2 of 2): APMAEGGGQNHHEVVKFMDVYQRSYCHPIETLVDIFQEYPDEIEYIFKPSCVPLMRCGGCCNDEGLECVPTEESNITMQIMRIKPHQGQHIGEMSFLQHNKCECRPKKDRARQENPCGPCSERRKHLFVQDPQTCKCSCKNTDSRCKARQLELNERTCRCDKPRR
Chain of KDR on human umbilical vein endothelial cells (HUVECs) (P35968 20-1356): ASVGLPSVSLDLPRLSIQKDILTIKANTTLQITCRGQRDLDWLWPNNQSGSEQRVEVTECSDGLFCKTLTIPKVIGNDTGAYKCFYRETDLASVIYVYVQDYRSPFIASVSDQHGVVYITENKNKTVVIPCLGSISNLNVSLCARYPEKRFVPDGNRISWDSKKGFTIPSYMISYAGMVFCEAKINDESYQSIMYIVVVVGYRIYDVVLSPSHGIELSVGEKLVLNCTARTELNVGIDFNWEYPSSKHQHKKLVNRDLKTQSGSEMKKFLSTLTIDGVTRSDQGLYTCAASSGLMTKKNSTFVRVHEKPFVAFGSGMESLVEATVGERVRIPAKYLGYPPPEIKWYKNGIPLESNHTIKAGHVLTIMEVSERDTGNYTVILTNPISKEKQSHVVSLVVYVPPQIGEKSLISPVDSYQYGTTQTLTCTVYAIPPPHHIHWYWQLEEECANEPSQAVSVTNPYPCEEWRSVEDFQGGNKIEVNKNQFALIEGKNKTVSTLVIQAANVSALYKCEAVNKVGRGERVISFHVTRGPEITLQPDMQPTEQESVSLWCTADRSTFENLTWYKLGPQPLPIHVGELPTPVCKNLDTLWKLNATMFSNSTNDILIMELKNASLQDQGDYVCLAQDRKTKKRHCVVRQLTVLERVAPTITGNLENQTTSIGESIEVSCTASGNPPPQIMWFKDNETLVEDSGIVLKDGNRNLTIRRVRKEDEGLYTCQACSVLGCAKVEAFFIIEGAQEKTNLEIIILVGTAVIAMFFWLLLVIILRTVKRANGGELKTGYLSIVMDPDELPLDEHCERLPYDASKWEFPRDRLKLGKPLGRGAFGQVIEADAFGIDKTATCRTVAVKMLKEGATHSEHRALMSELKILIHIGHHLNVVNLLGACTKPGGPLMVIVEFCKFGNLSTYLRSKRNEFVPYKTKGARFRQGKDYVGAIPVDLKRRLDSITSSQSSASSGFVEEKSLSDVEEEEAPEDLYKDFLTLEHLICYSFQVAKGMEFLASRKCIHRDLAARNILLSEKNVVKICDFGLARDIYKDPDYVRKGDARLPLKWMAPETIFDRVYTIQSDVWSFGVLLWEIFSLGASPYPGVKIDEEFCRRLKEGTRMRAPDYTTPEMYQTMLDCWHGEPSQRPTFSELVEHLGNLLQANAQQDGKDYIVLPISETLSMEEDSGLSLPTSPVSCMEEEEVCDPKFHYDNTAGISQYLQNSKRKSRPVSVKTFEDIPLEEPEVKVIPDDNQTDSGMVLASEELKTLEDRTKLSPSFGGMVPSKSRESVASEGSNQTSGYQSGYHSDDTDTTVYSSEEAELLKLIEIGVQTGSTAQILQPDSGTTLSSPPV
Chain of KDR on transiently KDR-transfected 293H cells (human) (P35968 20-1356): as above
Chain of VEGF165 (Peprotech #100-20) (P15692 other isoform, or with tags, fused parts or gaps limits assumed): as the sequence (P15692 other isoform, or with tags, fused parts or gaps, chain 2 of 2) above

For the molecule Ac-GDPDTCTMWGDSGRWYCFPADPGGGK-NH2 (disulfide 6-17 (inferred); not fully specified) [SEQ ID NO:301], the results for the Kd in [1] and in [3] were 0.49 µM and 0.26 µM, respectively. For the same molecule, in [2], the “VEGF-induced KDR phosphorylation in HUVECs” value was at least 50 % inhibition at 10 µM.

B1: SEQ ID NO:322 (peptide)
peptide: Ac-AGYGPCAEMSPWLCWYPGTGGGK-NH2
modifications: disulfide 6-14 (inferred); not fully specified; also: C-terminal Lys fluorescein-labeled in some assay forms
Take B1: the values for the Kd in [4] and in assay [5] were 0.13 µM and 3.7 µM, respectively. Further, in assay [6], the binding result is on record as “no binding”.
As for Ac-AQGDYVYWEIIELTGATDHTPPGGK-NH2 (not fully specified) [SEQ ID NO:307], in assay [1], the affinity, expressed as Kd, was 0.18 µM. Moreover, in assay [2], the “VEGF-induced KDR phosphorylation in HUVECs” value was at least 50 % inhibition at 10 µM.
On to RGPCSGQPWHLCYYQ [phage isolate RGPCSGQPWHLCYYQ], for which the binding result in assay [7] is listed as “binds”.
For the molecule Ac-AGWIECYHPDGICYHFGTGGGK-NH2 (disulfide 6-13 (inferred); not fully specified) [SEQ ID NO:269], the Kd in assay [1] and in assay [3] was 0.32 µM throughout. Moreover, the “VEGF-induced KDR phosphorylation in HUVECs” value in [2] is at least 50 % inhibition at 10 µM.

B2: dimer 25 (D25) (peptide)
peptide 1: Ac-AGPTWCEDDWYYCWLFGTGGGK-NH2
peptide 2: Ac-GDSRVCWEDSWGGEVCFRYDPGGGK-NH2
modifications: disulfide I:6-I:13, II:6-II:16 (inferred); not fully specified (some residues, bridges); printed as Ac-AGPTWCEDDWYYCWLFGTGGGK{Ac-GDSRVCWEDSWGGEVCFRYDPGGGK[JJ-Glut-NH(CH_2)4-(S)-CH(NH_2)C(=O)-]-NH_2}-NH_2; also: heterodimer, chain 2 C-terminal Lys joined to linker
As to B2, the “IC50, VEGF-induced migration of HUVECs” value in [2] turned out to be 0.005 µM.

B3: SEQ ID NO:321 (peptide)
peptide: Ac-AGPGPCKGYMPHQCWYMGTGGGK-NH2
modifications: disulfide 6-14 (inferred); not fully specified; also: C-terminal Lys fluorescein-labeled in some assay forms
For B3, the Kd in assay [8] came to 0.08 µM; in assay [4], 0.06 µM; in assay [5], 0.4 µM. Moreover, in assay [6], the binding result was “no binding”.
In the case of WIECNKDGKCWHY [phage isolate WIECNKDGKCWHY], the binding result in assay [9] was “binds”.
For the molecule WYWCEFYGVCSEE [phage isolate WYWCEFYGVCSEE], the binding result in assay [9] is “binds”.
Take PWTCWLEDHLACAML [phage isolate PWTCWLEDHLACAML]: the binding result in assay [7] is given as “binds”.
On to GITCDELGRCVHW [phage isolate GITCDELGRCVHW], for which the binding result in assay [9] is “binds”.
Turning to Ac-AQDWYYDEILSMADQLRHAFLSGGGGGK([AEEA-AEEA-Biotin])-NH2 (peptide, part only; not given: control peptide and neutravidin-HRP, not shown: large carriers, also: neutravidin-HRP complex with biotinylated control peptide (dimer)) [neutravidin-HRP complex of SEQ ID NO:356 and control peptide, dimer], the ratio of specific binding to that of monomer (Dimer) in assay [10] is 2.3.

B4: SEQ ID NO:326 (peptide)
peptide: Ac-AQEGWFRNPQEIMGFGDSWDKPGGGGGK-NH2
modifications: not fully specified; also: C-terminal Lys fluorescein-labeled in some assay forms
As to B4, the Kd in assay [4] worked out at 1.4 µM. The binding result in assay [11] and in assay [6] was “no binding” each time.
With Ac-GDWWECK(ivDde)REEYRNTTWCAWADPGGGK-NH2 (disulfide 6-17 (inferred)) [Ac-GDWWECK(ivDde)REEYRNTTWCAWADPGGGK-NH2 (SEQ ID NO:366 having a blocked K)], the “VEGF-induced KDR phosphorylation in HUVECs” value in [2] was at least 50 % inhibition at 10 µM.

B5: SEQ ID NO:324 (peptide)
peptide: Ac-AGGHPCKGMLPHTCWYEGTGGGK-NH2
modifications: disulfide 6-14 (inferred); not fully specified; also: C-terminal Lys fluorescein-labeled in some assay forms
The molecule B5 had a Kd in assay [4] of 3.3 µM. In addition, the binding result in assay [6] is “no binding”.
For Ac-AQDWYYDEILSMADQLRHAFLSGGGGGK([AEEA-AEEA-Biotin])-NH2 (peptide, part only; not given: neutravidin-HRP, not shown: large carriers, also: tetrameric complex with neutravidin-HRP) [tetrameric complex of biotinylated SEQ ID NO:356 (JJ spacer) with neutravidin-HRP], in assay [10], the ratio of specific binding to that of monomer (Tetramer) is 16.
Regarding Ac-AQEPEGYAYWEVITLYHEEDGDGGK-NH2 (not fully specified) [SEQ ID NO:305], the values for the Kd in assay [1] and in assay [3] were 0.27 µM and 0.73 µM, respectively. In addition, the “VEGF-induced KDR phosphorylation in HUVECs” value in assay [2] was at least 50 % inhibition at 10 µM.
On to Ac-AQDWYYDEILSMADQLRHAFLSGGGGGK([AEEA-AEEA-Biotin])-NH2 (peptide, part only; not given: control peptide and neutravidin-HRP, not shown: large carriers, also: neutravidin-HRP complex with biotinylated control peptide (trimer)) [neutravidin-HRP complex of SEQ ID NO:356 and control peptide, trimer], for which, in assay [10], the ratio of specific binding to that of monomer (Trimer) was 5.7.

B6: dimer 17 (D17) (peptide)
peptide 1: AQDWYYDEILGRGGRGGRGGK
peptide 2: VCWEDSWGGEVCFRYDPGGGK
modifications: not fully specified; N-terminal acetyl; C-terminal Lys(JJ-Glut)-NH2; N-terminal acetyl; contains J (8-amino-3,6-dioxaoctanoyl); C-terminal Lys joined to linker K
B6: in assay [2], the “IC50, VEGF-induced migration of HUVECs” value was about 0.25 µM.
As for DHHCYLHNGQWICYPF [phage isolate DHHCYLHNGQWICYPF], the binding result in assay [12] is on record as “binds”.
MPWCSEVTWGWCKLN [phage isolate MPWCSEVTWGWCKLN]: the binding result in assay [7] is “binds”.
Still for that read-out and setting: the entry for IDFCKGMAPWLCADM [phage isolate IDFCKGMAPWLCADM] is “binds”.

B7: SEQ ID NO:323 (peptide)
peptide: Ac-AGYGPCKNMPPWMCWHEGTGGGK-NH2
modifications: disulfide 6-14 (inferred); not fully specified; also: C-terminal Lys fluorescein-labeled in some assay forms
In the case of B7, the Kd was found to be 0.42 µM in assay [8], 0.18 µM in assay [4] and 1.8 µM in [5]. Also, in assay [6], the binding result is “no binding”.
Take GVECNHMGLCVSW [phage isolate GVECNHMGLCVSW]: the binding result in assay [9] is given as “binds”.
For WVECNHKGLCREY [phage isolate WVECNHKGLCREY], the binding result in [9] was “binds”.
Regarding Ac-AQAFPRFGGDDYWIQQYLRYTDGGK-NH2 (not fully specified) [SEQ ID NO:306], the Kd worked out at 0.53 µM in [1] and 0.25 µM in [3]. In addition, the “VEGF-induced KDR phosphorylation in HUVECs” value in [2] was at least 50 % inhibition at 10 µM.
Regarding WIQCNHQGQCFHG [phage isolate WIQCNHQGQCFHG], the binding result in [9] is “binds”.
Consider NSHCYIWDGMWLCFPD [phage isolate NSHCYIWDGMWLCFPD], for which, in assay [12], the binding result is on record as “binds”.

B8: SEQ ID NO:325 (peptide)
peptide: Ac-AQAPAWTFGTNWRSIQRVDSLTGGGGGK-NH2
modifications: not fully specified; also: C-terminal Lys fluorescein-labeled in some assay forms
In [4], B8 yielded a Kd of 0.84 µM. In addition, the binding result in [11] and in assay [6] was “no binding” in each case.
